Measured values from patent US20090305946A1 (University of California, published 2009).

Experiments:
[1] = target: T1, rat G-protein Gαq in rat hippocampal membranes (rat, UniProt P82471 1-359); test: stimulation of ^35S-GTPγS binding by the peptide in rat hippocampal membranes
T1 construct: also called Gq
T1 sequence (looked up): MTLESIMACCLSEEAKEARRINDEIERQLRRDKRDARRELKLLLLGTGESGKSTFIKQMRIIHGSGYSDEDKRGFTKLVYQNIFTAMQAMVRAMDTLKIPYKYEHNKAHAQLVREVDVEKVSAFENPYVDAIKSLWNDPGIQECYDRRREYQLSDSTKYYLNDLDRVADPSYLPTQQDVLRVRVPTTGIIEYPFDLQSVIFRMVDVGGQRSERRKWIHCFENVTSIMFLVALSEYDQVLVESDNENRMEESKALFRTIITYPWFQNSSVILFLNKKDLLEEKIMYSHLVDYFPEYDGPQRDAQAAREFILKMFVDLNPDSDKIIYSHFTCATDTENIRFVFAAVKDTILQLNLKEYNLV

[2] = target: tail-less PS-1 (amino acids 1-430 of PS-1) (human, UniProt P49768 1-430); test: co-immunoprecipitation with MAb to the PS-1 loop, Western blot with anti-Go
Source text: Verification of the binding of G-protein Gₒ to the cytoplasmic carboxyl terminus of PS-1. A tail-less construct of PS-1 was made in pcDNA3 in which only the cytoplasmic domain of PS-1 immediately following the last TM-domain is deleted (this construct comprises amino acids 1-430). This construct was used to transfect ES (PS-1^{-/-}/PS-2^{-/-}) cells. […] In an identical strategy to the one described above for full-length PS-1, ES (PS-1^{-/-}/PS-2^{-/-}) cells were transfected with cDNAs for tail-less PS-1 and the G-proteins GoA or GoB. Cells extracts were then subjected to immunoprecipitation with PS-1 loop MAb #5232), separated on SDS PAGE and Western blotted with antibodies to Gₒ.
100 μg of extract of ES (PS-1^{-/-}/PS-2^{-/-}) cells co-transfected with cDNAs for tail-less PS-1 and the G-protein GαoA or GαoB were immunoprecipitated with MAb to the large hydrophilic loop of PS-1, followed by Western blot hybridization with affinity purified polyclonal antibody to Gₒ (recognizes both isoforms, GoA and GoB).

B1: PS-1 cytoplasmic peptide C(21-39), last 19 amino acids of the C-tail (peptide)
peptide: TDYLVQPFMDQLAFHQFYI
notes: Synthetic peptide; also called residues 21-39 of the C-tail
[1]
  binding result: binds

B2: PS-1 cytoplasmic peptide ic3 (KYLPE) (peptide)
peptide: KYLPE
notes: Synthetic peptide; also called loop 3; Cytoplasmic Loop 3 peptide
[1]
  binding result: binds

B3: human G-protein GαoB (other)
chain: GCTLSAEERAALERSKAIEKNLKEDGISAAKDVKLLLLGAGESGKSTIVKQMKIIHEDGFSGEDVKQYKPVVYSNTIQSLAAIVRAMDTLGIEYGDKERKADAKMVCDVVSRMEDTEPFSAELLSAMMRLWGDSGIQECFNRSREYQLNDSAKYYLDSLDRIGAADYQPTEQDILRTRVKTTGIVETHFTFKNLHFRLFDVGGQRSERKKWIHCFEDVTAIIFCVALSGYDQVLHEDETTNRMHESLKLFDSICNNKWFTDTSIILFLNKKDIFEEKIKKSPLTICFPEYTGPSAFTEAVAYIQAQYESKNKSAHKEIYTHVTCATDTNNIQFVFDAVTDVIIAKNLRGCGLY
notes: Co-transfected with PS constructs in ES double-null cells; assayed in detergent extracts; also called GoB; GOB
[2]
  binding result: no binding
